In publication PMC9748339, “Co-crystalization reveals the interaction between AtYchF1 and ppGpp” (Frontiers in Molecular Biosciences, 2022):

T1: MBP-AtYchF1 (Arabidopsis thaliana, UniProt Q9SA73)
T1 construct: gene YchF1; AtYchF1 cDNA in pMAL-C2, N-terminal MBP tag kept, E. coli BL21 (DE3)
T1 sequence (Q9SA73 1-394): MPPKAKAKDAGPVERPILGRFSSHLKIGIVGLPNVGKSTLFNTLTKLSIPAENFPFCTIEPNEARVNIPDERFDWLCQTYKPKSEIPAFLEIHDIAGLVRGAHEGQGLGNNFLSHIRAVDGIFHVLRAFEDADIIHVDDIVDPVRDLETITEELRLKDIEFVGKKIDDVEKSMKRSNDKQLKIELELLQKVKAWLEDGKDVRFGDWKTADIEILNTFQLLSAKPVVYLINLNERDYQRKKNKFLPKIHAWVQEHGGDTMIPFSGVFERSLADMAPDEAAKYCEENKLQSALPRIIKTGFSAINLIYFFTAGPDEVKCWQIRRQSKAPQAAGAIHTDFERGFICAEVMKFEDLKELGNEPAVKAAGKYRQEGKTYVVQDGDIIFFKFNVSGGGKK

B1: MBP-AtYchF1 (Arabidopsis thaliana) (protein)
chain: T1 sequence (Q9SA73 1-394)
notes: AtYchF1 cDNA in pMAL-C2, N-terminal MBP tag kept, E. coli BL21 (DE3)

What was measured:
[1] = biological target: T1, MBP-AtYchF1; assay: competition with Mant-GTP or Mant-ATP, fluorescence […]-500 nm; assay type: binding; details: 31 μM Mant-GTP or Mant-ATP; about 100 μM MBP-AtYchF1; competitive
[2] = substrate: Nc1ncnc2c1ncn2[C@@H]1O[C@H](COP(=O)(O)OP(=O)(O)OP(=O)(O)O)[C@@H](O)[C@H]1O; assay: purified protein; assay type: biochemical, Arabidopsis thaliana; details: 300 μM MBP-AtYchF1; Pi release
[3] = substrate: Nc1nc2c(ncn2[C@@H]2O[C@H](COP(=O)(O)OP(=O)(O)OP(=O)(O)O)[C@@H](O)[C@H]2O)c(=O)[nH]1; assay: purified protein; assay type: biochemical, Arabidopsis thaliana; details: 300 μM MBP-AtYchF1; Pi release
[4] = substrate: Nc1nc2c(ncn2[C@@H]2O[C@H](COP(=O)(O)OP(=O)(O)O)[C@@H](OP(=O)(O)OP(=O)(O)O)[C@H]2O)c(=O)[nH]1; assay: purified protein; assay type: biochemical, Arabidopsis thaliana; details: 300 μM MBP-AtYchF1; room temperature; PPi release

Row | Molecule | competition with Mant-GTP or Mant-ATP, fluorescence 400-500 nm [1] | Km [2] [mM] | Vmax [2] [µmol/min] | Km [3] [mM] | Vmax [3] [µmol/min] | Km [4] [mM] | Vmax [4] [µmol/min]
1 | Nc1nc2c(ncn2[C@@H]2O[C@H](COP(=O)(O)OP(=O)(O)O)[C@@H](OP(=O)(O)OP(=O)(O)O)[C@H]2O)c(=O)[nH]1 [ppGpp] | ppGpp competed well against Mant-GTP and Mant-ATP for the binding of MBP-AtYchF1 |  |  |  |  |  | 
2 | B1 |  | 1.278 ± 0.1838 | 0.0939 | 1.203 ± 0.1255 | 0.0924 | 2.235 ± 0.2943 | 0.0349
